Experimental data from US10464978B2, “Peptides and combination of peptides for use in immunotherapy against ovarian cancer and other cancers” (immatics biotechnologies GmbH, priority 2015, dated 2019).

Biological target: HLA-A*02:01 (Homo sapiens, UniProt P04439, D140Y/D185E/D98H/E176V/E277Q/G131W/G231S/I119V/I121R/I166T/I218V/L300P/L318F/N151K/N90K/P208A/P217A/Q86G/Q94H/R138H/R169H/T345S)
Assay: MHC binding assay: UV-ligand exchange with beta2m ELISA (peptide exchange yield)
Details: binding to HLA-A*02:01
Source text: Candidate peptides for T cell based therapies according to the present invention were further tested for their MHC binding capacity (affinity). The individual peptide-MHC complexes were produced by UV-ligand exchange, where a UV-sensitive peptide is cleaved upon UV-irradiation, and exchanged with the peptide of interest as analyzed. Only peptide candidates that can effectively bind and stabilize the peptide-receptive MHC molecules prevent dissociation of the MHC complexes. To determine the yield of the exchange reaction, an ELISA was performed based on the detection of the light chain ([…]) of stabilized MHC complexes. The assay was performed as generally described in Rodenko et al. (Rodenko et al., 2006).
96 well MAXISorp plates (NUNC) were coated over night with 2 ug/ml streptavidin in PBS at room temperature, washed 4× and blocked for 1 h at 37° C. in 2% BSA containing blocking buffer. […] Peptide-MHC monomers of the UV-exchange reaction were diluted 100 fold in blocking buffer. Samples were incubated for 1h at 37° C., washed four times, incubated with 2 ug/ml HRP conjugated anti-β2m for 1h at 37° C., washed again and detected with TMB solution that is stopped with […]. Absorption was measured at 450 nm. Candidate peptides that show a high exchange yield (preferably higher than 50%, most preferred higher than 75%) are generally preferred for a generation and production of antibodies or fragments thereof, and/or T cell receptors or fragments thereof, as they show sufficient avidity to the MHC molecules and prevent dissociation of the MHC complexes.

Substance | Peptide exchange (MHC class I binding score, peptide exchange yield)
106 (LLYDAVHIVSV; listed as Homo sapiens) [compound 106] | “+++” (≥50 = +++)
107 (FLQPVDDTQHL; listed as Homo sapiens) [compound 107] | “+++” (≥50 = +++)
108 (ALFPGVALLLA; listed as Homo sapiens) [compound 108] | “++++” (≥75% = ++++)
109 (IILSILEQA; listed as Homo sapiens) [compound 109] | “++++” (≥75% = ++++)
110 (FLSQVDFEL; listed as Homo sapiens) [compound 110] | “+++” (≥50 = +++)
111 (YVWGFYPAEV; listed as Homo sapiens) [compound 111] | “+++” (≥50 = +++)
113 (GLLPTPLFGV; listed as Homo sapiens) [compound 113] | “+++” (≥50 = +++)
114 (SLVGEPILQNV; listed as Homo sapiens) [compound 114] | “++” (≥20% = ++)
115 (AIAGAGILYGV; listed as Homo sapiens) [compound 115] | “++” (≥20% = ++)
116 (YHIDEEVGF; listed as Homo sapiens) [compound 116] | “+” (≥10% = +)
117 (ILPDGEDFLAV; listed as Homo sapiens) [compound 117] | “+++” (≥50 = +++)
118 (KLIDNNINV; listed as Homo sapiens) [compound 118] | “+++” (≥50 = +++)
119 (FLYIGDIVSL; listed as Homo sapiens) [compound 119] | “++++” (≥75% = ++++)
120 (ALLGIPLTLV; listed as Homo sapiens) [compound 120] | “+++” (≥50 = +++)
121 (GVVDPRAISVL; listed as Homo sapiens) [compound 121] | “++” (≥20% = ++)
122 (FLLAEDDIYL; listed as Homo sapiens) [compound 122] | “+++” (≥50 = +++)
123 (NLWDLTDASVV; listed as Homo sapiens) [compound 123] | “+++” (≥50 = +++)
124 (ALYETELADA; listed as Homo sapiens) [compound 124] | “++” (≥20% = ++)
125 (VQIHQVAQV; listed as Homo sapiens) [compound 125] | “+++” (≥50 = +++)
126 (VLAYFLPEA; listed as Homo sapiens) [compound 126] | “++++” (≥75% = ++++)
127 (KIGDEPPKV; listed as Homo sapiens) [compound 127] | “++” (≥20% = ++)
128 (YLFDDPLSAV; listed as Homo sapiens) [compound 128] | “++” (≥20% = ++)
129 (GLLDGGVDILL; listed as Homo sapiens) [compound 129] | “+++” (≥50 = +++)
130 (FLWNGEDSALL; listed as Homo sapiens) [compound 130] | “+++” (≥50 = +++)
131 (FVPPVTVFPSL; listed as Homo sapiens) [compound 131] | “++” (≥20% = ++)
132 (LLVEQPPLAGV; listed as Homo sapiens) [compound 132] | “+++” (≥50 = +++)

Further lines, results first:

Peptide exchange (MHC class I binding score, peptide exchange yield) | Substance
“++” (≥20% = ++) | 133 (KVLSNIHTV; listed as Homo sapiens) [compound 133]
“+++” (≥50 = +++) | 134 (YLQELIFSV; listed as Homo sapiens) [compound 134]
“+++” (≥50 = +++) | 135 (ALSEVDFQL; listed as Homo sapiens) [compound 135]
“+++” (≥50 = +++) | 136 (YLADPSNLFVV; listed as Homo sapiens) [compound 136]
“++++” (≥75% = ++++) | 137 (TLVLTLPTV; listed as Homo sapiens) [compound 137]
“+++” (≥50 = +++) | 138 (YQYPRAILSV; listed as Homo sapiens) [compound 138]
“+++” (≥50 = +++) | 139 (SVMEVNSGIYRV; listed as Homo sapiens) [compound 139]
“++” (≥20% = ++) | 140 (YMDAPKAAL; listed as Homo sapiens) [compound 140]
“++” (≥20% = ++) | 141 (YLDFSNNRL; listed as Homo sapiens) [compound 141]
“+++” (≥50 = +++) | 142 (FLFATPVFI; listed as Homo sapiens) [compound 142]
“++++” (≥75% = ++++) | 143 (LLLDITPEI; listed as Homo sapiens) [compound 143]
“+++” (≥50 = +++) | 144 (YIMEPSIFNTL; listed as Homo sapiens) [compound 144]
“++” (≥20% = ++) | 145 (FLATSGTLAGI; listed as Homo sapiens) [compound 145]
“++” (≥20% = ++) | 146 (SLATAGDGLIEL; listed as Homo sapiens) [compound 146]
“+++” (≥50 = +++) | 147 (SLLEAVSFL; listed as Homo sapiens) [compound 147]
“++” (≥20% = ++) | 148 (ALNPEIVSV; listed as Homo sapiens) [compound 148]
“+++” (≥50 = +++) | 149 (NLLELFVQL; listed as Homo sapiens) [compound 149]
“+++” (≥50 = +++) | 150 (RLWEEGEELEL; listed as Homo sapiens) [compound 150]

Peptide exchange (MHC class I binding score, peptide exchange yield) | Substance
“+++” (≥50 = +++) | 151 (KILQQLVTL; listed as Homo sapiens) [compound 151]
“+++” (≥50 = +++) | 152 (ILFEDIFDV; listed as Homo sapiens) [compound 152]
“+” (≥10% = +) | 153 (FLIANVLYL; listed as Homo sapiens) [compound 153]
“++” (≥20% = ++) | 154 (ALDDGTPAL; listed as Homo sapiens) [compound 154]
“+++” (≥50 = +++) | 155 (RVANLHFPSV; listed as Homo sapiens) [compound 155]
“++” (≥20% = ++) | 157 (SLNDEVPEV; listed as Homo sapiens) [compound 157]
“+++” (≥50 = +++) | 158 (KLFDVDEDGYI; listed as Homo sapiens) [compound 158]
“++++” (≥75% = ++++) | 159 (GLVGNPLPSV; listed as Homo sapiens) [compound 159]
“+++” (≥50 = +++) | 160 (FLFDEEIEQI; listed as Homo sapiens) [compound 160]
“+++” (≥50 = +++) | 161 (ALLEGVNTV; listed as Homo sapiens) [compound 161]
“+++” (≥50 = +++) | 162 (YQQAQVPSV; listed as Homo sapiens) [compound 162]
“+++” (≥50 = +++) | 163 (ALDEMGDLLQL; listed as Homo sapiens) [compound 163]
“+++” (≥50 = +++) | 164 (ALLPQPKNLTV; listed as Homo sapiens) [compound 164]
“+++” (≥50 = +++) | 165 (SLLDEIRAV; listed as Homo sapiens) [compound 165]
“+++” (≥50 = +++) | 166 (YLNHLEPPV; listed as Homo sapiens) [compound 166]
“+++” (≥50 = +++) | 167 (KVLEVTEEFGV; listed as Homo sapiens) [compound 167]
“++++” (≥75% = ++++) | 168 (KILDADIQL; listed as Homo sapiens) [compound 168]
